Reference: patent publication US20140087995A1 (published 2014)
Numbered stars: 1 amine (or outer) side, 2 acyl side, 3 side chain; on linkers, the order of the positions; unused ones are H or OH. Bridge positions count the residues as written; N and C are the ends. Side chains are listed from the residue outwards. Ends that are not written are not given here. * marks the point of attachment. C20 diacid = O=C(O)CCCCCCCCCCCCCCCCCCC(=O)*; γGlu = O=C(O)[C@H](CCC(=O)[*:2])N[*:1]

Target: T1, human calcitonin receptor (human, UniProt P30988 25-474)
T1 sequence (looked up): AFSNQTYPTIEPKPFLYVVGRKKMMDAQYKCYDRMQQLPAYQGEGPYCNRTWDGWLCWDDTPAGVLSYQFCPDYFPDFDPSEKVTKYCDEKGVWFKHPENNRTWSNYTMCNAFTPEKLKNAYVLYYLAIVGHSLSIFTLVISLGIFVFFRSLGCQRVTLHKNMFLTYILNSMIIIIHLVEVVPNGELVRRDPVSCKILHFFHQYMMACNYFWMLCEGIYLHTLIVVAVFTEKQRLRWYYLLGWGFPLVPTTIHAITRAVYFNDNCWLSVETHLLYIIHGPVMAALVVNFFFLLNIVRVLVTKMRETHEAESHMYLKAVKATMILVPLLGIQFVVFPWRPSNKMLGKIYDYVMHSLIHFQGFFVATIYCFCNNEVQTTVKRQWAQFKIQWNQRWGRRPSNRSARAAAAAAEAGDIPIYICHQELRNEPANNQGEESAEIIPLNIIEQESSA
Assay: cell-based or functional assay

B1: N^ε1-[(4S)-4-carboxy-4-(19-carboxynonadecanoylamino)butanoyl]-[Glu14,Arg17,Pro21,Pro27,His35]-h-amylin (peptide)
peptide: K([γGlu-C20 diacid])CNTATCATQRLAEFLRHSSPNFGAIPSSTNVGSHTY-NH2
modifications: disulfide 2-7; N-terminus assumed
SMILES: CC[C@H](C)[C@H](NC(=O)[C@H](C)NC(=O)CNC(=O)[C@H](Cc1ccccc1)NC(=O)[C@H](CC(N)=O)NC(=O)[C@@H]1CCCN1C(=O)[C@H](CO)NC(=O)[C@H](CO)NC(=O)[C@H](Cc1c[nH]cn1)NC(=O)[C@H](CCCNC(=N)N)NC(=O)[C@H](CC(C)C)NC(=O)[C@H](Cc1ccccc1)NC(=O)[C@H](CCC(=O)O)NC(=O)[C@H](C)NC(=O)[C@H](CC(C)C)NC(=O)[C@H](CCCNC(=N)N)NC(=O)[C@H](CCC(N)=O)NC(=O)[C@@H](NC(=O)[C@H](C)NC(=O)[C@@H]1CSSC[C@H](NC(=O)[C@@H](N)CCCCNC(=O)CC[C@H](NC(=O)CCCCCCCCCCCCCCCCCCC(=O)O)C(=O)O)C(=O)N[C@@H](CC(N)=O)C(=O)N[C@@H]([C@@H](C)O)C(=O)N[C@@H](C)C(=O)N[C@@H]([C@@H](C)O)C(=O)N1)[C@@H](C)O)C(=O)N1CCC[C@H]1C(=O)N[C@@H](CO)C(=O)N[C@@H](CO)C(=O)N[C@H](C(=O)N[C@@H](CC(N)=O)C(=O)N[C@H](C(=O)NCC(=O)N[C@@H](CO)C(=O)N[C@@H](Cc1c[nH]cn1)C(=O)N[C@H](C(=O)N[C@@H](Cc1ccc(O)cc1)C(N)=O)[C@@H](C)O)C(C)C)[C@@H](C)O
B1 was tested, and the “hCTR funct. EC50 (pM)” value was 5580 pM.

K([γGlu-γGlu-C20 diacid])CNTATCATQRLAEFLRHSSPNFGAIPSSTNVGPHTY-NH2 (disulfide 2-7 (inferred)) was tested, and the “hCTR funct. EC50 (pM)” value was 2830 pM.

B2: N^ε1-[(4S)-4-carboxy-4-[[(4S)-4-carboxy-4-(19-carboxynonadecanoylamino)butanoyl]amino]butanoyl]-[Glu14,Arg17,Pro21,Pro27,Pro34,Glu35,Pro37]-h-amylin (peptide)
peptide: K([γGlu-γGlu-C20 diacid])CNTATCATQRLAEFLRHSSPNFGAIPSSTNVGPETP-NH2
modifications: disulfide 2-7; N-terminus assumed
SMILES: CC[C@H](C)[C@H](NC(=O)[C@H](C)NC(=O)CNC(=O)[C@H](Cc1ccccc1)NC(=O)[C@H](CC(N)=O)NC(=O)[C@@H]1CCCN1C(=O)[C@H](CO)NC(=O)[C@H](CO)NC(=O)[C@H](Cc1c[nH]cn1)NC(=O)[C@H](CCCNC(=N)N)NC(=O)[C@H](CC(C)C)NC(=O)[C@H](Cc1ccccc1)NC(=O)[C@H](CCC(=O)O)NC(=O)[C@H](C)NC(=O)[C@H](CC(C)C)NC(=O)[C@H](CCCNC(=N)N)NC(=O)[C@H](CCC(N)=O)NC(=O)[C@@H](NC(=O)[C@H](C)NC(=O)[C@@H]1CSSC[C@H](NC(=O)[C@@H](N)CCCCNC(=O)CC[C@H](NC(=O)CC[C@H](NC(=O)CCCCCCCCCCCCCCCCCCC(=O)O)C(=O)O)C(=O)O)C(=O)N[C@@H](CC(N)=O)C(=O)N[C@@H]([C@@H](C)O)C(=O)N[C@@H](C)C(=O)N[C@@H]([C@@H](C)O)C(=O)N1)[C@@H](C)O)C(=O)N1CCC[C@H]1C(=O)N[C@@H](CO)C(=O)N[C@@H](CO)C(=O)N[C@H](C(=O)N[C@@H](CC(N)=O)C(=O)N[C@H](C(=O)NCC(=O)N1CCC[C@H]1C(=O)N[C@@H](CCC(=O)O)C(=O)N[C@H](C(=O)N1CCC[C@H]1C(N)=O)[C@@H](C)O)C(C)C)[C@@H](C)O
With B2 the “hCTR funct. EC50 (pM)” value was 102 pM.

B3: N^ε1-[(4S)-4-carboxy-4-[[(4S)-4-carboxy-4-(19-carboxynonadecanoylamino)butanoyl]amino]butanoyl]-[Glu14,Arg17,Pro21,Pro27,Pro34,Phe37]-h-amylin (peptide)
peptide: K([γGlu-γGlu-C20 diacid])CNTATCATQRLAEFLRHSSPNFGAIPSSTNVGPNTF-NH2
modifications: disulfide 2-7; N-terminus assumed
SMILES: CC[C@H](C)[C@H](NC(=O)[C@H](C)NC(=O)CNC(=O)[C@H](Cc1ccccc1)NC(=O)[C@H](CC(N)=O)NC(=O)[C@@H]1CCCN1C(=O)[C@H](CO)NC(=O)[C@H](CO)NC(=O)[C@H](Cc1c[nH]cn1)NC(=O)[C@H](CCCNC(=N)N)NC(=O)[C@H](CC(C)C)NC(=O)[C@H](Cc1ccccc1)NC(=O)[C@H](CCC(=O)O)NC(=O)[C@H](C)NC(=O)[C@H](CC(C)C)NC(=O)[C@H](CCCNC(=N)N)NC(=O)[C@H](CCC(N)=O)NC(=O)[C@@H](NC(=O)[C@H](C)NC(=O)[C@@H]1CSSC[C@H](NC(=O)[C@@H](N)CCCCNC(=O)CC[C@H](NC(=O)CC[C@H](NC(=O)CCCCCCCCCCCCCCCCCCC(=O)O)C(=O)O)C(=O)O)C(=O)N[C@@H](CC(N)=O)C(=O)N[C@@H]([C@@H](C)O)C(=O)N[C@@H](C)C(=O)N[C@@H]([C@@H](C)O)C(=O)N1)[C@@H](C)O)C(=O)N1CCC[C@H]1C(=O)N[C@@H](CO)C(=O)N[C@@H](CO)C(=O)N[C@H](C(=O)N[C@@H](CC(N)=O)C(=O)N[C@H](C(=O)NCC(=O)N1CCC[C@H]1C(=O)N[C@@H](CC(N)=O)C(=O)N[C@H](C(=O)N[C@@H](Cc1ccccc1)C(N)=O)[C@@H](C)O)C(C)C)[C@@H](C)O
B3 was tested, and the “hCTR funct. EC50 (pM)” value was 2140 pM.

B4: N^ε1-[(4S)-4-carboxy-4-[[(4S)-4-carboxy-4-(19-carboxynonadecanoylamino)butanoyl]amino]butanoyl]-[Arg17,Pro21,Pro27,Pro31,Pro34,Arg35]-h-amylin (peptide)
peptide: K([γGlu-γGlu-C20 diacid])CNTATCATQRLANFLRHSSPNFGAIPSSTPVGPRTY-NH2
modifications: disulfide 2-7; N-terminus assumed
SMILES: CC[C@H](C)[C@H](NC(=O)[C@H](C)NC(=O)CNC(=O)[C@H](Cc1ccccc1)NC(=O)[C@H](CC(N)=O)NC(=O)[C@@H]1CCCN1C(=O)[C@H](CO)NC(=O)[C@H](CO)NC(=O)[C@H](Cc1c[nH]cn1)NC(=O)[C@H](CCCNC(=N)N)NC(=O)[C@H](CC(C)C)NC(=O)[C@H](Cc1ccccc1)NC(=O)[C@H](CC(N)=O)NC(=O)[C@H](C)NC(=O)[C@H](CC(C)C)NC(=O)[C@H](CCCNC(=N)N)NC(=O)[C@H](CCC(N)=O)NC(=O)[C@@H](NC(=O)[C@H](C)NC(=O)[C@@H]1CSSC[C@H](NC(=O)[C@@H](N)CCCCNC(=O)CC[C@H](NC(=O)CC[C@H](NC(=O)CCCCCCCCCCCCCCCCCCC(=O)O)C(=O)O)C(=O)O)C(=O)N[C@@H](CC(N)=O)C(=O)N[C@@H]([C@@H](C)O)C(=O)N[C@@H](C)C(=O)N[C@@H]([C@@H](C)O)C(=O)N1)[C@@H](C)O)C(=O)N1CCC[C@H]1C(=O)N[C@@H](CO)C(=O)N[C@@H](CO)C(=O)N[C@H](C(=O)N1CCC[C@H]1C(=O)N[C@H](C(=O)NCC(=O)N1CCC[C@H]1C(=O)N[C@@H](CCCNC(=N)N)C(=O)N[C@H](C(=O)N[C@@H](Cc1ccc(O)cc1)C(N)=O)[C@@H](C)O)C(C)C)[C@@H](C)O
For B4, the “hCTR funct. EC50 (pM)” value was 8660 pM.

For K([γGlu-γGlu-C20 diacid])CNTATCATQRLADFLRHSSPNFGAIPSSTNVGPETY-NH2 (disulfide 2-7), the “hCTR funct. EC50 (pM)” value was 843 pM.

In the case of K([γGlu-C20 diacid])CNTATCATQRLAEFLRHSSPNFGAIPSSTNVGPHTY-NH2 (disulfide 2-7), the “hCTR funct. EC50 (pM)” value is reported as 1450 pM.

B5: N^ε1-[(4S)-4-carboxy-4-[[(4S)-4-carboxy-4-(19-carboxynonadecanoylamino)butanoyl]amino]butanoyl]-[His14,Arg17,Pro21,Pro27]-h-amylin (peptide)
peptide: K([γGlu-γGlu-C20 diacid])CNTATCATQRLAHFLRHSSPNFGAIPSSTNVGSNTY-NH2
modifications: disulfide 2-7; N-terminus assumed
SMILES: CC[C@H](C)[C@H](NC(=O)[C@H](C)NC(=O)CNC(=O)[C@H](Cc1ccccc1)NC(=O)[C@H](CC(N)=O)NC(=O)[C@@H]1CCCN1C(=O)[C@H](CO)NC(=O)[C@H](CO)NC(=O)[C@H](Cc1c[nH]cn1)NC(=O)[C@H](CCCNC(=N)N)NC(=O)[C@H](CC(C)C)NC(=O)[C@H](Cc1ccccc1)NC(=O)[C@H](Cc1c[nH]cn1)NC(=O)[C@H](C)NC(=O)[C@H](CC(C)C)NC(=O)[C@H](CCCNC(=N)N)NC(=O)[C@H](CCC(N)=O)NC(=O)[C@@H](NC(=O)[C@H](C)NC(=O)[C@@H]1CSSC[C@H](NC(=O)[C@@H](N)CCCCNC(=O)CC[C@H](NC(=O)CC[C@H](NC(=O)CCCCCCCCCCCCCCCCCCC(=O)O)C(=O)O)C(=O)O)C(=O)N[C@@H](CC(N)=O)C(=O)N[C@@H]([C@@H](C)O)C(=O)N[C@@H](C)C(=O)N[C@@H]([C@@H](C)O)C(=O)N1)[C@@H](C)O)C(=O)N1CCC[C@H]1C(=O)N[C@@H](CO)C(=O)N[C@@H](CO)C(=O)N[C@H](C(=O)N[C@@H](CC(N)=O)C(=O)N[C@H](C(=O)NCC(=O)N[C@@H](CO)C(=O)N[C@@H](CC(N)=O)C(=O)N[C@H](C(=O)N[C@@H](Cc1ccc(O)cc1)C(N)=O)[C@@H](C)O)C(C)C)[C@@H](C)O
notes: also called compound 92
For B5, the “hCTR funct. EC50 (pM)” value was 2380 pM.

B6: N^ε1-[(4S)-4-carboxy-4-[[(4S)-4-carboxy-4-(19-carboxynonadecanoylamino)butanoyl]amino]butanoyl]-[Glu14,Arg17,Pro21,Pro27,His34,Glu35]-h-amylin (peptide)
peptide: K([γGlu-γGlu-C20 diacid])CNTATCATQRLAEFLRHSSPNFGAIPSSTNVGHETY-NH2
modifications: disulfide 2-7; N-terminus assumed
SMILES: CC[C@H](C)[C@H](NC(=O)[C@H](C)NC(=O)CNC(=O)[C@H](Cc1ccccc1)NC(=O)[C@H](CC(N)=O)NC(=O)[C@@H]1CCCN1C(=O)[C@H](CO)NC(=O)[C@H](CO)NC(=O)[C@H](Cc1c[nH]cn1)NC(=O)[C@H](CCCNC(=N)N)NC(=O)[C@H](CC(C)C)NC(=O)[C@H](Cc1ccccc1)NC(=O)[C@H](CCC(=O)O)NC(=O)[C@H](C)NC(=O)[C@H](CC(C)C)NC(=O)[C@H](CCCNC(=N)N)NC(=O)[C@H](CCC(N)=O)NC(=O)[C@@H](NC(=O)[C@H](C)NC(=O)[C@@H]1CSSC[C@H](NC(=O)[C@@H](N)CCCCNC(=O)CC[C@H](NC(=O)CC[C@H](NC(=O)CCCCCCCCCCCCCCCCCCC(=O)O)C(=O)O)C(=O)O)C(=O)N[C@@H](CC(N)=O)C(=O)N[C@@H]([C@@H](C)O)C(=O)N[C@@H](C)C(=O)N[C@@H]([C@@H](C)O)C(=O)N1)[C@@H](C)O)C(=O)N1CCC[C@H]1C(=O)N[C@@H](CO)C(=O)N[C@@H](CO)C(=O)N[C@H](C(=O)N[C@@H](CC(N)=O)C(=O)N[C@H](C(=O)NCC(=O)N[C@@H](Cc1c[nH]cn1)C(=O)N[C@@H](CCC(=O)O)C(=O)N[C@H](C(=O)N[C@@H](Cc1ccc(O)cc1)C(N)=O)[C@@H](C)O)C(C)C)[C@@H](C)O
B6 was tested, and the “hCTR funct. EC50 (pM)” value was 7050 pM.
